Measurements: IntAct's records for PubMed 19375531

B1: AH receptor-interacting protein (Homo sapiens), O00170 (parent)
chain: MADIIARLREDGIQKRVIQEGRGELPDFQDGTKATFHYRTLHSDDEGTVLDDSRARGKPMELIIGKKFKLPVWETIVCTMREGEIAQFLCDIKHVVLYPLVAKSLRNIAVGKDPLEGQRHCCGVAQMREHSSLGHADLDALQQNPQPLIFHMEMLKVESPGTYQQDPWAMTDEEKAKAVPLIHQEGNRLYREGHVKEAAAKYYDAIACLKNLQMKEQPGSPEWIQLDQQITPLLLNYCQCKLVVEEYYEVLDHCSSILNKYDDNVKAYFKRGKAHAAVWNAQEAQADFAKVLELDPALAPVVSRELRALEARIRQKDEEDKARFRGIFSH

Variants of: B1
Conditions: with hs90b_human HSP90AB1, P08238
Sequence of hs90b_human HSP90AB1, P08238 (P08238 whole entry): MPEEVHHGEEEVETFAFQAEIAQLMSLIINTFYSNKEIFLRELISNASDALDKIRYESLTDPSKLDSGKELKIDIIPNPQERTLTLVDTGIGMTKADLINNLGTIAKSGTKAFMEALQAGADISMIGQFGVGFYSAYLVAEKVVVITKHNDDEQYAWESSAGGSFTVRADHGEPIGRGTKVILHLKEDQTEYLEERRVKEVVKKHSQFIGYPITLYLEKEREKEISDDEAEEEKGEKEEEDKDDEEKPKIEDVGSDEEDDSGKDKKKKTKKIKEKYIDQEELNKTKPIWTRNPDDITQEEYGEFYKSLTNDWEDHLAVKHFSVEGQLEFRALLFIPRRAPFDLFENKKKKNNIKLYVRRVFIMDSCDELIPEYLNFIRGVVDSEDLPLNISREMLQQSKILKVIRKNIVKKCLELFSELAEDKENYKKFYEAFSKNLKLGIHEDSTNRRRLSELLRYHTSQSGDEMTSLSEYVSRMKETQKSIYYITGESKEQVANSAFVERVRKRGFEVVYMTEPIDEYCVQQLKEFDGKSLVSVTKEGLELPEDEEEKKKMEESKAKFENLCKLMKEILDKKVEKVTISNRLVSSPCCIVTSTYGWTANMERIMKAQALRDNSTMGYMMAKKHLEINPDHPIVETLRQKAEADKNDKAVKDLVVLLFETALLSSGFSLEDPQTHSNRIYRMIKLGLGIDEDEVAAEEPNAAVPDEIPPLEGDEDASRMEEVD

Row | Variant | effect of a mutation on the interaction
1 | MADIIARLREDGIQKRVIQEGRGELPDFQDGTKATFHYRTLHSDDEGTVLDDSRARGKPMELIIGKKFKLPVWETIVCTMREGEIAQFLCDIKHVVLYPLVAKSLRNIAVGKDPLEGQRHCCGVAQMREHSSLGHADLDALQQNPQPLIFHMEMLKVESPGTYQQDPWAMTDEEKAKAVPLIHQEGNRLYREGHVKEAAAKYYDAIACLKNLQMKEQPGSPEWIQLDQQITPLLLNYCQCKLVVEEYYEVLDHCSSILNKYDDNVAAYFKRGKAHAAVWNAQEAQADFAKVLELDPALAPVVSRELRALEARIRQKDEEDKARFRGIFSH [K266A] | disrupting interaction
2 | MADIIARLREDGIQKRVIQEGRGELPDFQDGTKATFHYRTLHSDDEGTVLDDSRARGKPMELIIGKKFKLPVWETIVCTMREGEIAQFLCDIKHVVLYPLVAKSLRNIAVGKDPLEGQRHCCGVAQMREHSSLGHADLDALQQNPQPLIFHMEMLKVESPGTYQQDPWAMTDEEKAKAVPLIHQEGNRLYREGHVKEAAAKYYDAIACLKNLQMKEQPGSPEWIQLDQQITPLLLNYCQCKLVVEEYYEVLDHCSSILNKYDDNVKAYFKAGKAHAAVWNAQEAQADFAKVLELDPALAPVVSRELRALEARIRQKDEEDKARFRGIFSH [R271A] | disrupting interaction
